{"source": "paper PMC5818494", "about": "“Specific Recognition of Arginine Methylated Histone Tails by JMJD5 and JMJD7” (Scientific Reports, 2018)", "key": {"[1]": {"target": "T1, JMJD7 (Mus musculus, UniProt P0C872)", "T1 construct": "The final model contains residues 1–316; GST (N, cleaved yes); made in house", "T1 sequence (P0C872 whole entry, the tested form may be a part)": "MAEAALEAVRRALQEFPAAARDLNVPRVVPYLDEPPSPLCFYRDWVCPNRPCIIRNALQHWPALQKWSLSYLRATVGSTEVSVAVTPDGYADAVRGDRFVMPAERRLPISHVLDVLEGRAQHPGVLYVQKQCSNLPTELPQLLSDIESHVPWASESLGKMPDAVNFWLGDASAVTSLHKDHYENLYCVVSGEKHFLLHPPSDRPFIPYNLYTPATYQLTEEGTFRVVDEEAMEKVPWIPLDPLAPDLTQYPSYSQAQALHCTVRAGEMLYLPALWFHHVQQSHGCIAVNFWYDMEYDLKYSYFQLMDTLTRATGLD", "test": "Biacore surface plasmon resonance binding of JMJD7 to immobilised bulk histone or synthetic peptides", "conditions": "C-terminal biotin peptide on SA chip or bulk histone on CM5 chip, JMJD7 injected, room temperature", "method": "(§1) Data were integrated and scaled using the HKL2000 suite of programs.\n(§2) 10 μg/ml calf bulk histone was dissolved in coating buffer (50 mM sodium acetate [pH 5.0]) and coated onto a CM5 chip (GE Healthcare). […] For peptides, 2 μg/ml synthetic peptide with C-terminal biotin was dissolved in PBS and coated onto a streptavidin coated SA chip (GE Healthcare). […] Similar procedures were carried out for JMJD5. All experiments are carried out at room temperature."}, "[2]": {"target": "T2, c-JMJD5 (Homo sapiens, UniProt Q8N371)", "T2 construct": "JMJD5 (residues 183–416, c-JMJD5) lacking the N-terminal domain; made in house", "T2 sequence (Q8N371 183-416)": "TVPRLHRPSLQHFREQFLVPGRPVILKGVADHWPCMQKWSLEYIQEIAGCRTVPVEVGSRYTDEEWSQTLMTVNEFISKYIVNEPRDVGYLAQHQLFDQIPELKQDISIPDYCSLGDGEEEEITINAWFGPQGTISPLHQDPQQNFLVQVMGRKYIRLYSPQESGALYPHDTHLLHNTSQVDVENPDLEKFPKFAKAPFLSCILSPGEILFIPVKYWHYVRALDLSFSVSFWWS", "test": "Biacore surface plasmon resonance binding of c-JMJD5 to immobilised bulk histone or synthetic peptides", "conditions": "C-terminal biotin peptide on SA chip or bulk histone on CM5 chip, c-JMJD5 injected, room temperature", "method": "as §1, §2"}, "[3]": {"target": "T2, c-JMJD5", "conditions": "fluorescence polarization, c-JMJD5, previous report; read-out: binding affinity; cited from earlier work", "from_the_text": "The binding affinities of various lysine binding domains, such as Chromodomains, PHD fingers, Tudor domains, etc., to lysine residues with and without methylation has been very well established. It is also true that the difference in binding affinity of Tudor domains to arginine with and without methylation is also marginal. The question here is whether c-JMJD5 or JMJD7 has different binding affinity depending on the methylation status of arginine. From the complex structure shown above, c-JMJD5 contains a binding pocket for methylarginine that is similar to those of Tudor domains (Fig ... || Clipping of histone tails, high turnover rates of histone in non-proliferating cells, arginine demethylation, and Pol II elongation control are highly contentious subjects in the transcription and epigenetic fields. Our previous novel discovery of clipping of arginine methylated histone tails by JMJD5 and JMJD7 sheds light on how these topics are intrinsically coupled. Data presented here not only reveal the underlying mechanism of novel enzymatic activities of JMJD5 and JMJD7, but also further corroborate our previous findings. Shortly after the release of our report, Shen et al. also repo ..."}}}
{"substance": "pH3: native form of H3 peptide (1–21)", "values": [{"measurement": "binding in words (SPR sensorgram)", "setting": "[1]", "result": "non-specific binding"}, {"measurement": "binding in words (SPR sensorgram)", "setting": "[2]", "result": "non-specific binding"}, {"measurement": "Kd", "setting": "[3]", "result": "~7", "unit": "µM"}]}
